Results: patent US20220064276A1
Numbering of substitutions follows the chain as printed.

B1: SR-AB22 (antibody, IgG1, V domains shown)
VH: QVQLVESGGGVVQPGRSLRLSCAASGFTFRSYVMHWVRQAPGKGLEWVAVISHEGSLKYYADSVKGRFTISRDNSKNTLYLQMNSLRAEDTAVYYCAVPRIAARRGGFGYWGQGTLVTVSS
VL: NFMLTQPHSVSESPGKTVTISCTRSSGNIDNNYVQWYQQRPGSSPTTVIYEDNQRPSGVPDRFSGSIDSSSNSASLTISGLKTEDEADYYCQSYDSDNQGVVFGGGTKLTVL
B2: SR-AB47-HuFab (Fab, V domains shown)
VH: B1 VH with L57G, V98R, Y110S
VL: B1 VL with N31Y, Q54V, S96Y, G100A
B3: SR-AB59-HuFab (Fab, V domains shown)
VH: B1 VH with L57G, V98L, Y110T
VL: B1 VL with N31Y, Q54V, S96Y, G100A
B4: SR-AB56-HuFab (Fab, V domains shown)
VH: B1 VH with L57G, V98L, Y110S
VL: B1 VL with N31Y, Q54V, S96Y, N98T
B5: SR-AB52-HuFab (Fab, V domains shown)
VH: B1 VH with L57G, V98R, Y110T
VL: B1 VL with N31Y, Q54V, S96Y, N98T
B6: SR-AB61-HuFab (Fab, V domains shown)
VH: B1 VH with L57G, V98L, Y110T
VL: B1 VL with N31Y, Q54V, S93G, S96W, N98T
B7: SR-AB41 Fab (Fab, V domains shown)
VH: B1 VH with V98R
VL: B1 VL with S96Y, G100A
B8: SR-AB46-HuFab (Fab, V domains shown)
VH: B1 VH with L57G, V98R, Y110S
VL: B1 VL with N31Y, Q54V, G100R
B9: SR-AB48-HuFab (Fab, V domains shown)
VH: B1 VH with L57G, V98R, Y110S
VL: B1 VL with N31Y, Q54V, S96Y, N98T
B10: SR-AB51-HuFab (Fab, V domains shown)
VH: B1 VH with L57G, V98R, Y110T
VL: B1 VL with N31Y, Q54V, S96Y, G100A
B11: SR-AB55-HuFab (Fab, V domains shown)
VH: B1 VH with L57G, V98L, Y110S
VL: B1 VL with N31Y, Q54V, S96Y, G100A
B12: SR-AB42-HuFab (Fab, V domains shown)
VH: B1 VH with V98R
VL: B1 VL with S96Y, N98T
B13: SR-AB60-HuFab (Fab, V domains shown)
VH: B1 VH with L57G, V98L, Y110T
VL: B1 VL with N31Y, Q54V, S96Y, N98T
B14: SR-AB57-HuFab (Fab, V domains shown)
VH: B1 VH with L57G, V98L, Y110S
VL: B1 VL with N31Y, Q54V, S93G, S96W, N98T
B15: SR-AB49-HuFab (Fab, V domains shown)
VH: B1 VH with L57G, V98R, Y110S
VL: B1 VL with N31Y, Q54V, S93G, S96W, N98T
B16: SR-AB43-HuFab (Fab, V domains shown)
VH: B1 VH with V98R
VL: B1 VL with N31Y, Q54V, G100R
B17: SR-AB53-HuFab (Fab, V domains shown)
VH: B1 VH with L57G, V98R, Y110T
VL: B1 VL with N31Y, Q54V, S93G, S96W, N98T
B18: SR-AB58-HuFab (Fab, V domains shown)
VH: B1 VH with L57G, V98L, Y110T
VL: B1 VL with N31Y, Q54V, G100R
B19: SR-AB54-HuFab (Fab, V domains shown)
VH: B1 VH with L57G, V98L, Y110S
VL: B1 VL with N31Y, Q54V, G100R
B20: SR-AB23 Fab (Fab, V domains shown)
VH: B1 VH with V98R
VL: B1 VL
B21: SR-AB50-HuFab (Fab, V domains shown)
VH: B1 VH with L57G, V98R, Y110T
VL: B1 VL with N31Y, Q54V, G100R

target: human LRRC33-proTGFβ1 complex (human) (UniProt Q86YC3); experiment: Octet, antibody immobilized
Sequence (Q86YC3 19-650 limits assumed, chain 1 of 2): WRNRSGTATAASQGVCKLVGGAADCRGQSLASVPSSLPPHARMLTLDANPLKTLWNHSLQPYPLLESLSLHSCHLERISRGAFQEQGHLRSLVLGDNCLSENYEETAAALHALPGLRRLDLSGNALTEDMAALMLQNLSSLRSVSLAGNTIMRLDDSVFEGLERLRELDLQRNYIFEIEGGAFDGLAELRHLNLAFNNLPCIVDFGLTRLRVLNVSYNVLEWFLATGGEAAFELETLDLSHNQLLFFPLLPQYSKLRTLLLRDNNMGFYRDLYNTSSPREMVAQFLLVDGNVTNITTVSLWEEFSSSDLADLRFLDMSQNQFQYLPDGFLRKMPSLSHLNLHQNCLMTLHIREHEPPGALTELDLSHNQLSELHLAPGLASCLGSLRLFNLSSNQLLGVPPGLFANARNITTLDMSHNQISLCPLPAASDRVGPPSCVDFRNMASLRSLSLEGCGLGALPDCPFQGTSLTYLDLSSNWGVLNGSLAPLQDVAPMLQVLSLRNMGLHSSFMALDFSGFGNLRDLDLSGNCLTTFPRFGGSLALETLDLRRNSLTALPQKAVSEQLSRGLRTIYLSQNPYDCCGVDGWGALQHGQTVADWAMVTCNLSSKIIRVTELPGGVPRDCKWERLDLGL
Sequence (chain, as listed by the source limits assumed, chain 2 of 2): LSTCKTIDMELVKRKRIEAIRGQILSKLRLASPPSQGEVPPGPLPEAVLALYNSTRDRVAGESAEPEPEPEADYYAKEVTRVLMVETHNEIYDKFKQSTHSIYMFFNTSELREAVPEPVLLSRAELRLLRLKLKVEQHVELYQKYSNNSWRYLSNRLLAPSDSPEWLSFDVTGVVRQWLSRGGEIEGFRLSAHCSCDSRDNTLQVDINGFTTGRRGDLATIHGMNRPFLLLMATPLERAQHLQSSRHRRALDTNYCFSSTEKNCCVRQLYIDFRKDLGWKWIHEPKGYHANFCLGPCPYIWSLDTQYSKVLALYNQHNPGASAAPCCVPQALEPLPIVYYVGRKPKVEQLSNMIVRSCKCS

Binder | Response (nm)
B1 | 0.133 nm

target: LTBP-proTGFβ1 in the LN229 CAGA12 assay of Table 20 (endogenous or over-expressed murine LTBP1 not stated); experiment: cell-based or functional assay

Binder | IC50 (CAGA12 luciferase)
B2 | 186 pM
B3 | 195 pM
B4 | 439 pM
B5 | 459 pM
B6 | 470 pM
B7 | 486 pM
B8 | 495 pM
B9 | 523 pM
B10 | 535 pM
B11 | 536 pM
B12 | 668 pM
B13 | 742 pM
B14 | 775 pM
B15 | 1020 pM
B16 | 1080 pM
B17 | 1180 pM
B18 | 4860 pM
B19 | 5870 pM
B20 | 8530 pM
B21 | 11000 pM
